{"source": "patent US20150004189A1", "key": {"[1]": {"target": "HLA DQ molecule DQB1*0202 (human)", "assay": "inhibition of radiolabeled peptide binding to purified HLA class II"}, "[2]": {"target": "HLA DQ molecule DQB1*0602 (human)", "assay": "inhibition of radiolabeled peptide binding to purified HLA class II"}, "[3]": {"target": "T1, HLA-DQ molecule DQB1*0501 (human)", "T1 chain 1": "not shown", "T1 chain 2": "not shown", "assay": "competition: inhibition of radiolabeled peptide binding to purified HLA"}, "HLA-DR DRB1*0301 (human)": {"target": "T2, HLA-DR DRB1*0301 (human)", "T2 chain 1": "not shown", "T2 chain 2": "not shown", "assay": "inhibition of radiolabeled peptide binding to purified HLA class II", "conditions": "remark: other sources report otherwise"}, "[4]": {"target": "HLA-DR molecules on the donors' cells (locus; alleles not stated)", "assay": "cell-based or functional assay"}, "[5]": {"target": "T3, HLA DP molecule DPB1*0401 (human)", "T3 chain 1": "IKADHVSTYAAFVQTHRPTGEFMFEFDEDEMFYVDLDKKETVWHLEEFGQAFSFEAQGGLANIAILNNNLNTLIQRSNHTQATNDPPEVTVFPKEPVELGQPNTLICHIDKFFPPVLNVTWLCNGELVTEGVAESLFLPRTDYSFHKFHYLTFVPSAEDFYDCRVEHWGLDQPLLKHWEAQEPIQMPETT", "T3 chain 2": "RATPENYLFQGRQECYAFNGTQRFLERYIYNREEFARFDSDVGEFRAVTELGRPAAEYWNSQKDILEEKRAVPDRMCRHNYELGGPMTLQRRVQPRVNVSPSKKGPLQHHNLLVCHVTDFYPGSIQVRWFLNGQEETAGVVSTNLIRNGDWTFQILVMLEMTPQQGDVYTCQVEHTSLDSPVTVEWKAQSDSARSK", "assay": "inhibition of radiolabeled peptide binding to purified HLA DP"}, "[6]": {"target": "T4, HLA DQ molecule DQB1*0402 (human), P01909", "T4 chain 1": "not shown", "T4 chain 2": "not shown", "assay": "inhibition of radiolabeled peptide binding to purified HLA class II"}, "[7]": {"target": "HLA DQ molecule DQB1*0503 (human)", "assay": "inhibition of radiolabeled peptide binding to purified HLA class II"}, "[8]": {"target": "HLA DQ molecule DQB1*0502 (human)", "assay": "inhibition of radiolabeled peptide binding to purified HLA class II"}, "[9]": {"target": "T5, HLA DP molecule DPB1*0201 (human)", "T5 chain 1": "T3 chain 1", "T5 chain 2": "T3 chain 2 with A36V, A55D, A56E, K69E", "assay": "competition vs radiolabeled peptide, purified HLA-DP"}, "[10]": {"target": "T3, HLA DP molecule DPB1*0401 (human)", "assay": "competition vs radiolabeled peptide, purified HLA-DP"}}, "note": "Positions count from the first letter of the chain named."}
{"binder": "LDLAVNAAVDAGIHF (modifications not checked)", "note": "[Pen ch 18 (291-305) peptide …, Peptide ID 3324.1331]", "values": [{"measurement": "IC50", "setting": "[1]", "value": 0.361, "unit": "µM"}, {"measurement": "IC50", "setting": "[2]", "value": 0.48, "unit": "µM"}]}
{"binder": "AAAGLAAAAPLESRQ (modifications not checked)", "note": "[Alt a 1 peptide, position 11, Peptide ID 3324.0017]", "values": [{"measurement": "IC50", "setting": "[3]", "value": 50, "unit": "µM"}]}
{"binder": "IASLFAAAGLAAAAP (modifications not checked)", "note": "[Alt a 1 peptide, position 6, Peptide ID 3324.0015]", "values": [{"measurement": "IC50", "setting": "HLA-DR DRB1*0301 (human)", "value": 32.1, "unit": "µM"}]}
{"binder": "GSDEKNLALSIKYNKEGDSM (peptide, UniProt Q41183 11-30, looked up)", "note": "[Dac g 2 (11-30) epitope region, Orchard Grass]", "values": [{"measurement": "Region restriction(s) DR (ELISPOT response inhibited by locus-specific mAb)", "setting": "[4]", "value": 1, "unit": "donors"}]}
{"binder": "VADAYITLVTLPKSS (modifications not checked)", "note": "[Alt a 1 peptide, position 143 (Peptide ID 3324.0016)]", "values": [{"measurement": "IC50", "setting": "[5]", "value": 2.5, "unit": "µM"}]}
{"binder": "KVSDDITYVATATLP (modifications not checked)", "note": "[Alt a 1 peptide, position 111 (Peptide ID 3324.0013)]", "values": [{"measurement": "IC50", "setting": "[5]", "value": 1.61, "unit": "µM"}]}
{"binder": "GIFLSVAAGNEAENA (modifications not checked)", "note": "[Pen ch 13 (271-285) peptide …, Peptide ID 3324.1303]", "values": [{"measurement": "IC50", "setting": "[6]", "value": 0.102, "unit": "µM"}, {"measurement": "IC50", "setting": "[7]", "value": 50, "unit": "µM"}, {"measurement": "IC50", "setting": "[8]", "value": 50, "unit": "µM"}]}
{"binder": "LDLAVNAAVDAGIHF (modifications not checked)", "note": "[Pen ch 18 peptide, position 291, … (Peptide ID 3324.1331)]", "values": [{"measurement": "IC50", "setting": "[9]", "value": 5.05, "unit": "µM"}, {"measurement": "IC50", "setting": "[10]", "value": 9.18, "unit": "µM"}]}
{"binder": "ITYVATATLPNYCRA (modifications not checked)", "note": "[Alt a 1 peptide, position 116 (Peptide ID 3324.0014)]", "values": [{"measurement": "IC50", "setting": "[5]", "value": 2.99, "unit": "µM"}]}
{"binder": "DGVWEIKSDKPLKGPFNFRF (peptide, UniProt P14947 51-70, looked up)", "note": "[Lol p 2 (51-70) epitope region, Rye Grass]", "values": [{"measurement": "Region restriction(s) DR (ELISPOT response inhibited by locus-specific mAb)", "setting": "[4]", "value": 3, "unit": "donors"}]}
